# Source: the DeepSol protein solubility set
# Experiment: soluble on expression in E. coli; label from the status in PepcDB or PDB records
row,Sequence,soluble on expression in E. coli
1,MAHHHHHHHRSDASVIVVGAGPAGLMLAGELRLGGVDVMVLEQLPQRTGESRGLGFTARTMEVFDQRGILPAFGPVETSTQGHFGGRPVDFGVLEGAHYGVKAVPQSTTESVLEEWALGRGAELLRGHTVRALTDEGDHVVVEVEGPDGPRSLTTRYVVGCDGGRSTVRKAAGFDFPGTSASREMFLADIRGCEITPRPIGETVPLGMVMSAPLGDGVDRIIVCERGAPARRRTGPPPYQEVAAAWQRLTGQDISHGEPVWVSAFGDPARQVSAYRRGRVLLAGDSAHVHLPAGGQGMNVSVQDSVNLGWKLAAVVSGRAPAGLLDTYHEERHPVGRRLLMNTQAQGMLFLSGDEMQPLRDVLSELIRYDEVSRHLAGMVSGLDIRYEVDGGDHPLLGMRMPHQELVRAHGKTSTTELLHPARGVLLDIADDAEVREAATGWSDRVDIVTASLHDAPPQGPLSDARAVLVRPDGYVAWISPGSRAGLTEALDRWFGPAR,soluble
2,MGSDKIHHHHHHMKLHYKKEHISCTNYKSESYEGFGIGTLTSGSNFNSQTLSVKTNFLIFILEGEVEIIPKEGKIKRVIAQEFFFISALSTYEIQVRVPGRYIYMSFLYNDIKLCEKHMLESYLKEVREASEEVGILSVRHPLNLFLELIDAYLRAGVNCKHLHSIKEKELFIILRTSYSKQEIVNLFHEIIGTNMSFKAAVLLHVDRVNNREELAQAMGMSITDLARKFKVEFGESVYSWLLKQKNKKIIYRLAQPGASVKEIVYEFGFSSAASFNKYCKKNFGNSPRELVRQLKDKHIDNQNLKI,not soluble
3,NTPYLRPEMFPELAILQQNWQVIRDEGLHLQQLEQIKAADKYNDAGFNSFFKTGWKRFYLKWYEDAHPSASQLCPQTTALLRDIPSVKAAMFATLPDGSRLPRHRDPYAGSLRFHLGLATPNDDRCFIEVDGQRYSWRDGEGVLFDETYIHYAENTSGENRLILFCDIERPMRYRWAQKVNHWLGRHLMSAASAPN,not soluble
4,MHNQAPIQRRKSTRIYVGNVPIGDGAPIAVQSMTNTRTTDVEATVNQIKALERVGADIVRVSVPTMDAAEAFKLIKQRVNVPLVADIHFDYRIALKVAEYGVDCLRINPGNIGNEERIRMVVDCARDKNIPIRIGVNAGSLEKDLQEKYGEPTPQALLESAMRHVDHLDRLNFDQFKVSVKASDVFLAVESYRLLAKQIDQPLHLGITEAGGARSGAVKSAIGLGLLLSEGIGDTLRVSLAADPVEEIKVGFDILKSLRIRSRGINFIACPTCSRQEFDVIGTVNALEQRLEDIITPMDVSIIGCVVNGPGEALVSTLGVTGGNKKSGLYEDGVRKDRLDNNDMIDQLEARIRAKASQLDEARRIDVQQVGKIITLEHHHHHH,not soluble
5,MRINFEKANSNHINIIFSWLKEPFIQEFWDNTQAHKDDILNFINGRTEPSSYADGKYVYWIASGNGHPFAMLMTIQETSEDEIDDIKLINLSKTGHSYGIDYMIGDKNYFGIGYGARTLIEFIDFFIKEVDPKADTFLIDPASDNPRAKHVYIKAGFEYVADFLMSGDVSGAGKLHHLLIKRIGLIK,not soluble
6,MEDIWPTIERTTISASVPEAPANFDEKPPFNRTINVYPLTNYTFGTKDAQAEKDKSVPERFKRMKDEYEVMGMRRSVEAVLIVHEHSLPHILLLQIGTTFYKLPGGELELGEDEISGVTRLLNETLGRTDGETNEWTIEDEIGNWWRPNFDPPRYPYIPAHVTKPKEHTKLLLVQLPSKSTFCVPKNFKLVAAPLFELYDNAAAYGPLISSLPTTLSRFNFIFNDSN,not soluble
7,MGSDKIHHHHHHAQTDPSQLKKEGSDAFNAKNYPVAYAKFSEYLKQTNNQDSAIAYYCGMAADEVKKYAEAVTFFDIAIQKKFNIGNAYARKALALDAMKKTDEYVATLEEGLKVDPDNKTMIKNYGLHYLKAGIAAQKAGKVEEAEECFKKVIPLDHKTYKTNALYSLGVLCYNDGANILKKAAPLANSDADKYAAEKEKADGRFKEAIGYLEEATKVSPEDTKSKTMLSQVQAAMK,not soluble
8,MGSDKIHHHHHHMSRTLIIYSTVDGQTKAICDQIAEQCKSDTQPVTMVSLEEAQSVNLSYFDKVIIGASIRYGKHRPELFQYVNRHRAVLNGKKNAFFTVNVVARKPEKNTPETNPYMKKFLQLSLWQPQQLGVFAGKIDYPKYRFFDKFMIRFIMWITKGPTDTSGTYEFTDWDKVQEFAKAFSER,not soluble
9,MKILLYFEGEKILAKSGIGRALDHQKRALSEVGIEYTLDADCSDYDILHINTYGVNSHRMVRKARKLGKKVIYHAHSTEEDFRNSFIGSNQLAPLVKKYLISLYSKADHLITPTPYSKTLLEGYGIKVPISAISNGIDLSRFYPSEEKEQKFREYFKIDEEKKVIICVGLFFERKGITDFIEVARQLPEYQFIWFGDTPMYSIPKNIRQLVKEDHPENVIFPGYIKGDVIEGAYAAANLFFFPSREETEGIVVLEALASQQQVLVRDIPVYQGWLVANENCYMGHSIEEFKKYIEGLLEGKIPSTREAGYQVAEQRSIKQIGYELKEVYETVLS,not soluble
10,MSEGWNIAILGATGAVGEALLETLAERQFPVGEIYALARHESAGEHLRFGGKSVIVQDAADFDWTQAQLAFFVAGAEASAAWIDDATNAGCLVIDSSGLFALEPDVPLVVPEVNPYVLADYRNRNVIAVADSLTSQLLAALKPLIDQGGLSRIAVTSMLSASAQGKKAVDALAGQSAKLLNGIPIDEDDFFGRQLAFNMLPLLPDREGSVRQERRIVDEVRKILQDDGVMISASVVQSPVFYGHAQMVSFEALRPLAAEEAREAFSRGEDIVLSEETDYPTQVGDASGNPQLSIGCVHNDYGMPEQIQFWSVADNVRFGGALMAVKIAEKLVQEYLY,not soluble
11,MGSDKIHHHHHHMAIQQLEKPEHAGRRTAPEITVSGIGKRYGATPVLMDVTLSVTPGEIHGIMGENGAGKSTLLKILGGAIMADSGTMELDGNPVRITTPRDAISQGISLISQELALIPNLSVLENVFLGRWSNRGSLLRPTKDGDHFARLLEETGFDLDPRATVGNLPIGQQQQVEILKALARGAKVLCMDEPTAVLNEAEKEKLLQVIKRLAQTGTTILIVSHYLEEVLELVDRVTILRDGQHIVTEDAAGHTPESLVRLMVGRDVDFLLPEIRQVQSQADTVLRVVGLTSAKVKEISFQVRRGEILGIAGLVGSGRSETLLAVFGADRTTGGHVEVNGRRIRASSIRDAIKAGIALIPESRKEQGLVMSRPASENIALSTLSGRSWAGFVSARREKAAVKDVSRSVDLRGARPGQPIANLSGGNQQKALFAKWLLDPPAVLLVDEPTRGVDIAAKARIHSIIAELAAKGTAVIVVSSELEEVLGLSHRIHVMRHGRIVAEFDRNASRDEVMTSAFLK,not soluble
12,SLGLKAAQKTLFPLRSIDDVVRLFAAELGREEPDLVLLSLVLGFVEHFLAVNRVIPTNVPELTFQPSPAPDPPGGLTYFPVADLSIIAALYARFTAQIRGAVDLSLYPREGGVSSRELVKKVSDVIWNSLSRSYFKDRAHIQSLFSFITGWSPVGTKLDSSGVAFAVVGACQALGLRDVHLALSEDHAWVVFGPNGEQTAEVTWHGKGNEDRRGQTVNAGVAERSWLYLKGSYMRCDRKMEVAFMVCAINPSIDLHTDSLELLQLQQKLLWLLYDLGHLERYPMALGNLADLEELEPTPGRPDPLTLYHKGIASAKTYYRDEHIYPYMYLAGYHCRNRNVREALQAWADTATVIQDYNYCREDEEIYKEFFEVANDVIPNLLKEAASLLEAGEERPGEQSQGTQSQGSALQDPECFAHLLRFYDGICKWEEGSPTPVLHVGWATFLVQSLGRFEGQVRQKVRIVSREAEAAEAEEPWGEEAREGRRRGPRRESKPEEPPPPKKPALDKGLGTGQGAVSGPPRKPPGTVAGTARGPEGGSTAQVPAPAASPPPEGPVLTFQSEKMKGMKELLVATKINSSAIKLQLTAQSQVQMKKQKVSTPSDYTLSFLKRQRKG,soluble
13,VAVGARCVCGRPLAVVTRPLLPGGVPFPTTCYLTGPEAVKAISHIEAEGKMKEYNDMLAENEDLRAGYERAHELYLAFRHEIALALEDSEEHIEGTSAGGMPVRVKCLHALLAQTLVMGEGANPIGDMALSAIKHEFDPAVCRCAVENEE,not soluble
14,MAHHHHHHMGWFRSSASPEAGTATAEAPAAAAEHGSQHRQPQPEANSPAPLTEAEQLDLLVAGARLDDTEAQDTARFLGSNRRHMYADGLLSCAAYTFSGLHHIQGQSSALTLLTMWTVGTTFLVDVAERKYLQESLQGTLRTAKTTSEAEKPLLLDQPPHNATPASTPRKAAVVPAMPTSSDSLSSAIKKPAPRDKEKLAEQQRKVFLTQAVASWLWMLASFQQFKVHKRLKWCGYSSWMGLGCAGYYTTRHLYNLLVK,soluble
15,LPQSVSRAAITAAYRRPETEAVSMLLEQARLPQPVAEQAHKLAYQLADKLRNQKNASGRAGMVQGLLQEFSLSSQEGVALMCLAEALLRIPDKATRDALIRDKISNGNWQSHIGRSPSLFVNAATWGLLFTGKLVSTHNEASLSRSLNRIIGKSGEPLIRKGVDMAMRLMGEQFVTGETIAEALANARKLEEKGFRYSYDMLGEAALTAADAQAYMVSYQQAIHAIGKASNGRGIYEGPGISIKLSALHPRYSRAQYDRVMEELYPRLKSLTLLARQYDIGINIDAEESDRLEISLDLLEKLCFEPELAGWNGIGFVIQAYQKRCPLVIDYLIDLATRSRRRLMIRLVKGAYWDSEIKRAQMDGLEGYPVYTRKVYTDVSYLACAKKLLAVPNLIYPQFATHNAHTLAAIYQLAGQNYYPGQYEFQCLHGMGEPLYEQVTGKVADGKLNRPCRIYAPVGTHETLLAYLVRRLLENGANTSFVNRIADTSLPLDELVADPVTAVEKLAQQEGQTGLPHPKIPLPRDLYGHGRDNSAGLDLANEHRLASLSSALLNSALQKWQALPMLEQPVAAGEMSPVINPAEPSSSVDKLAAALEHHHHHH,soluble
16,MGSDKIHHHHHHMTEGLTIGIDVGGTNLRFGVFRGNELLDSTRSEVDLREKCRQAPDPEGAAALVTTLLTEGIADLRRHHPNIARVGIAFPGFIDDDGVLLQSPNIPQLIQFDLQTAVGAACQLPVLVENDANAAGYGEFWEERQEHPELQNLLYVGLGTGVGGGWIHQGRPWRGDHGSAMEIGHIIVVPGGRRCGCGNQGCLEQYASARGVQSTYVELTGTAPDAMVIAQMAGDAHSEAASAFRMAGGYLGQVLAHVVKVTDVAVVRIGGGMSAAWDRFAPAMLQRLDADMIPALRGNVEVKRGNDDDLAGMRGAALLADQEFLHS,not soluble
17,MHHHHHHIEGRHMLRPGDCEVCISYLGRFYQDLKDRDVTFSPATIEEELIKFCREARGKENRLCYYIGATDDAATKIINEVSKPLAHHIPVEKICEKLKKKDSQICELKYDKQIDLSTVDLKKLRVKELKKILDDWGEMCKGCAEKSDYIRKINELMPKYAPKAASARTDL,soluble
18,MSLGSIKDNLSEIRNKIDKAAKKVDRDSKEITLLAVTKTVDVDLVNEAMREGITSVGENKPQELARKYDIIGDKLNWHLIGTLQTNKVKYIIDKVCMIHSLDRIALCEEIQKRAEQINREIDCLVQVNISKEESKHGLDREEVVDFVKEVSEKYKNIKIKGLMTMAPFIEDEDEIRGVFKGLKDLSKQIKELNIPNVGMDVLSMGMSHDYEIAIEEGATIVRVGTSIFGERNYNKEGHHHHHH,soluble
19,AENNNLKLASTMEGRVEQLAEQRQVIEAGGGERRVEKQHSQGKQTARERLNNLLDPHSFDEVGAFRKHRTTLFGMDKAVVPADGVVTGRGTILGRPVHAASQDFTVMGGSAGETQSTKVVETMEQALLTGTPFLFFYDSGGARIQEGIDSLSGYGKMFFANVKLSGVVPQIAIIAGPCAGGASYSPALTDFIIMTKKAHMFITGPQVIKSVTGEDVTADELGGAEAHMAISGNIHFVAEDDDAAELIAKKLLSFLPQNNTEEASFVNPNNDVSPNTELRDIVPIDGKKGYDVRDVIAKIVDWGDYLEVKAGYATNLVTAFARVNGRSVGIVANQPSVMSGCLDINASDKAAEFVNFCDSFNIPLVQLVDVPGFLPGVQQEYGGIIRHGAKMLYAYSEATVPKITVVLRKAYGGSYLAMCNRDLGADAVYAWPSAEIAVMGAEGAANVIFRKEIKAADDPDAMRAEKIEEYQNAFNTPYVAAARGQVDDVIDPADTRRKIASALEMYATKRQTRPAKKHGNFPC,soluble
